This note sets out measurements from publication PMC8257255, “Soluble Fas ligand drives autoantibody-induced arthritis by binding to DR5/TRAIL-R2” (eLife, 2021).

This assay has as its target T1, Recombinant Human TRAIL R2/TNFRSF10B Fc Chimera Protein (human, UniProt O14763 56-210).
T1 construct: TNFRSF10B (DR5, TRAIL R2), human, fused to Fc; also called rhDR5–Fc; DR5–Fc; source: bought: R&D Systems (631-T2)
Kind of assay: SPR; Biacore T100; recombinant DR5 (R&D 631-T2-100) coupled to a CM5 chip in 10 mM sodium acetate pH 5.5; recombinant FasL or TRAIL passed over at 30 μL/min for 120 s; empty flow cell subtracted; equilibrium affinity measurements. The following applies: both partners purified. A general note: In SPR one partner is held on a chip, and binding of the other changes the refractive index at the surface.

B1: recombinant human soluble Fas ligand (His-tagged) (ligand, UniProt P48023 130-281, looked up)
chain: QIGHPSPPPEKKELRKVAHLTGKSNSRSMPLEWEDTYGIVLLSGVKYKKGGLVINETGLYFVYSKVYFRGQSCNNLPLSHKVYMRNSKYPQDLVMMEGKMMSYCTTGQMWARSSYLGAVFNLTSADHLYVNVSELSLVNFEESQTFFGLYKL
notes: Fas ligand (TNFSF6), human, soluble recombinant form; also called sFasL; rhFasL; source: bought: R&D Systems (126-FL)
A word on the Kd: it is the concentration at which binding is half-saturated. With B1, the Kd was found to be 1.23 pM.
